Earlier results in article PMC4888498.

Assays:
[1] = biological target: T1, TvFL3 Thermoplasma volcanium (Thermoplasma volcanium GSS1) (UniProt Q979L0); experiment: EMSA
T1 sequence: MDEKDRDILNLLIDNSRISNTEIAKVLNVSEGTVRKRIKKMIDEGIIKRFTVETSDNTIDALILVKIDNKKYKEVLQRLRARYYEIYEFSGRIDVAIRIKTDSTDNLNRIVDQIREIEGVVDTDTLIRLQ

[2] = biological target: T2, Ss-LrpB Sulfolobus solfataricus (Saccharolobus solfataricus P2) (UniProt Q7LX67); experiment: EMSA
T2 sequence: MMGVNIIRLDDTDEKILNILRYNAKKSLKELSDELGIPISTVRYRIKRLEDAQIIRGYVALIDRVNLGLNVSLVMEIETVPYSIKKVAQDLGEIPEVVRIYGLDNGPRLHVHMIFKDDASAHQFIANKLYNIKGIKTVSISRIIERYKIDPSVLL

Sequence	Ka [1] [M⁻¹]	Ka [2] [M⁻¹]
GAAATTAATACGACTCACTATGGGGAGAGAGACGGTCGAAATTCGACCCTGTGTGTCGCTAGTTATTGCTCAGCGGTGG (double strand) [19468044-FFRP-4]	7.3e+06	
GAAATTAATACGACTCACTATGGGGAGAGAGACGTACGAAATTCGTACCTGTGTGTCGCTAGTTATTGCTCAGCGGTGG (double strand) [19468044-FFRP-1]	1.28e+07	
GAAATTAATACGACTCACTATGGGGAGAGAGACGGACGAAATTCGTCCCTGTGTGTCGCTAGTTATTGCTCAGCGGTGG (double strand) [19468044-FFRP-2]	9e+06	
GAAATTAATACGACTCACTATGGGGAGAGAGACTTGCAAAATTTGCAACTGTGTGTCGCTAGTTATTGCTCAGCGGTGG (double strand) [19468044-FFRP-7]		3.5e+07
GAAATTAATACGACTCACTATGGGGAGAGAGACGTTCGAAATTCGAACCTGTGTGTCGCTAGTTATTGCTCAGCGGTGG (double strand) [19468044-FFRP-3]	8.2e+06	
